Assays:
[1] = biological target: T1, CTLA-4 (UniProt P16410 P16410:36-161); experiment: CTLA-4 stably expressing 293 cells, 2-fold dilutions from 250 nM; no binding to non-transfected 293T by flow at 10 nM; conditions: tags: expressed on CTLA-4-transfected 293T / stably expressing 293 cells; label: AlexaFluor 647 (flow cytometry); possible G-quadruplex; Mfold secondary structure dG -10.6
Description: (§1) Panels A and B are FACS analysis diagrams showing the binding activities of selected aptamers to CTLA-4 expressed on wild-type 293T cells. […] The cells of panel A and panel B were incubated with 10 nM of AlexaFluor 647 labeled CA7, CA21, CA32 and CA82 aptamer as indicated. After washing away the unbounded aptamer, the fluorescent signals were measured by flow cytometry and the results of wild-type 293T cells are shown in panel A. The results for CTLA-4 expressing wild-type 293T cells are shown in panel B. Panels C, D, E and F show the CTLA-4 binding affinity of the aptamers CA7, CA21, CA32 and CA82, respectively. The four aptamers were selected and characterized for their binding affinity against CTLA-4 expressing cells. These aptamers were first synthesized and followed by 2-fold serial dilution which started from 250 nM. Six dosage points were analyzed after incubation of the selected pool with CTLA-4 stably expressed 293 cells.
(§2) Four aptamers (CA7, CA21, CA32 and CA82) isolated by the method described in Example 1 were selected by their higher structural stability. The binding specificity of these four aptamers were analyzed by flow cytometry. All four of these apatmers specifically recognized CTLA-4-expressing cells, except a relatively low non-specific binding signal in CA7 against wild type 293 cells (FIG. 2, panels A and B). […]

[2] = biological target: CTLA-4 (Mus musculus, UniProt P09793 P09793:36-161); experiment: CA21 stated to cross-react with mouse CTLA-4, assay not described; conditions: label: AlexaFluor 647 (flow cytometry)
Sequence of CTLA-4 (Mus musculus, UniProt P09793 P09793:36-161) (P09793 36-161, one chain of several): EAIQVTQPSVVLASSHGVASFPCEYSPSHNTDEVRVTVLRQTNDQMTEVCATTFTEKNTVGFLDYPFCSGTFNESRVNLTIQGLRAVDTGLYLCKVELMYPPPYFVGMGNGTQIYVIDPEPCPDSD

[3] = biological target: T1, CTLA-4; experiment: CTLA-4 stably expressing 293 cells; no binding to non-transfected 293T by flow at 10 nM; conditions: tags: expressed on CTLA-4-transfected 293T / stably expressing 293 cells; label: AlexaFluor 647 (flow cytometry)
Description: as §1, §2

T1 sequence (P16410 36-161, one chain of several): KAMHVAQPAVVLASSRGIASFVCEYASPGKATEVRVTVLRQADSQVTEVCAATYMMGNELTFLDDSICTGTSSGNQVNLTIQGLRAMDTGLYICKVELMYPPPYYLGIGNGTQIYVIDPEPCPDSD

B1: CA21 (ssDNA)
DNA: TCCCTACGGCGCTAACGATGGTGAAAATGGGCCTAGGGTGGACGGTGCCACCGTGCTACAAC
Which Kd [1] does the source give for B1 here?
Its Kd is 11.8 nM.

Does B1 bind [2]?
Result: binds

B2: CA82 (ssDNA)
DNA: TCCCTACGGCGCTAACCGATCGAAAATGTCCAGGGAGTTGTCTGTAGCCACCGTGCTACAAC
For B2, which Kd [3] is on record?
Its Kd is 36.5 nM.

B3: CA32 (ssDNA)
DNA: TCCCTACGGCGCTAACGTCCACACTCAGAAAACAGAATAGGGGGTAGCCACCGTGCTACAAC
With B3 as the binder, how does the Kd [3] read?
The Kd was 61.8 nM.
